For one assay, the target named is B′γ1 regulatory subunit (UniProt Q13362-2 1-449). As to the kind of experiment: ITC; 1 mM peptide titrated to 20–50 μM B′γ1; 20 mM HEPES pH 7.5, 200 mM NaCl; VP-ITC. The following applies: both partners purified.
A further assay addresses T1, B′ε regulatory subunit (UniProt Q16537 1-467).
T1 construct: PP2A regulatory subunit B′ε, full-length; prey in a GST pull-down, so probably with the GST tag cleaved by TEV; source: E. coli DH5α, purified (GS4B, anion exchange, gel filtration)
Kind of assay: pull-down; about 10 μg GST-tagged B′-binding motif or GST-pCyk4 on glutathione (GS4B) resin; 10 μg holoenzyme, B′ε or PR70 added; 25 mM Tris pH 8.0, 150 mM NaCl, 3 mM DTT; SDS-PAGE, Coomassie. The following applies: both partners purified.

As a reminder, the Kd is the free concentration of one partner at which half of the binding sites on the other are occupied at equilibrium, for simple one-to-one binding. A lower Kd goes with a tighter complex.

T1 sequence (Q16537 whole entry): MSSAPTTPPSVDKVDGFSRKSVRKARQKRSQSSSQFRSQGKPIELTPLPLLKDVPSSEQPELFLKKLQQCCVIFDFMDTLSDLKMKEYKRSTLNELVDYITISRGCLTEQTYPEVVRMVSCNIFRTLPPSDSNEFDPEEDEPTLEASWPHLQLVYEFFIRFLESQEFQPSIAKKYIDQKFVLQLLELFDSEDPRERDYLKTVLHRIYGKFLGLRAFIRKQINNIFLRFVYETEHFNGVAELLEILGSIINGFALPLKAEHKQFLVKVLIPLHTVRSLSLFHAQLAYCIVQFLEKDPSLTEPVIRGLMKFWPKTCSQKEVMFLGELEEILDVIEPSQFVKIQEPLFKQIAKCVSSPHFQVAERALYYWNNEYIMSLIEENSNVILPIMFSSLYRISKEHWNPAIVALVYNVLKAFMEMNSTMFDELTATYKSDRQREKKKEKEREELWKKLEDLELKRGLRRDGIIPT

B1: Cyk4 S149E peptide (synthetic, phosphomimetic) (peptide)
chain: LSTIDEEGS
On to B1, for which, in the assay with B′γ1 regulatory subunit, the equilibrium dissociation constant (Kd) is 1590 nM and the “fold stronger binding than the native Cyk4 peptide” value was 15 fold.

B2: GST-pCyk4 (1–177), Plk1-phosphorylated (domain or fragment, human, UniProt Q9H0H5 1-177, looked up)
chain: MDTMMLNVRNLFEQLVRRVEILSEGNEVQFIQLAKDFEDFRKKWQRTDHELGKYKDLLMKAETERSALDVKLKHARNQVDVEIKRRQRAEADCEKLERQIQLIREMLMCDTSGSIQLSEEQKSALAFLNRGQPSSSNAGNKRLSTIDESGSILSDISFDKTDESLDWDSSLVKTFKL
modifications: phosphorylated by Plk1: mono- to pentakis-phosphorylated forms; sites of the tetrakis form S149, S157, S164 and S170
notes: also called GST-Cyk4; source: phosphorylated by Plk1; not shown: GST, N-terminal, kept
In the case of B2, the binding result in the assay with B′ε regulatory subunit was “binds”.

The values are drawn from PMC5586252, “PP2A-B′ holoenzyme substrate recognition, regulation and role in cytokinesis” (Cell Discovery, 2017).
